Measurements taken from US20130243775A1.

Target: interleukin-4 receptor (IL-4R) (UniProt P24394)
Assay: cell-based or functional assay

Chain of UniProt P24394 (P24394 26-825 limits assumed): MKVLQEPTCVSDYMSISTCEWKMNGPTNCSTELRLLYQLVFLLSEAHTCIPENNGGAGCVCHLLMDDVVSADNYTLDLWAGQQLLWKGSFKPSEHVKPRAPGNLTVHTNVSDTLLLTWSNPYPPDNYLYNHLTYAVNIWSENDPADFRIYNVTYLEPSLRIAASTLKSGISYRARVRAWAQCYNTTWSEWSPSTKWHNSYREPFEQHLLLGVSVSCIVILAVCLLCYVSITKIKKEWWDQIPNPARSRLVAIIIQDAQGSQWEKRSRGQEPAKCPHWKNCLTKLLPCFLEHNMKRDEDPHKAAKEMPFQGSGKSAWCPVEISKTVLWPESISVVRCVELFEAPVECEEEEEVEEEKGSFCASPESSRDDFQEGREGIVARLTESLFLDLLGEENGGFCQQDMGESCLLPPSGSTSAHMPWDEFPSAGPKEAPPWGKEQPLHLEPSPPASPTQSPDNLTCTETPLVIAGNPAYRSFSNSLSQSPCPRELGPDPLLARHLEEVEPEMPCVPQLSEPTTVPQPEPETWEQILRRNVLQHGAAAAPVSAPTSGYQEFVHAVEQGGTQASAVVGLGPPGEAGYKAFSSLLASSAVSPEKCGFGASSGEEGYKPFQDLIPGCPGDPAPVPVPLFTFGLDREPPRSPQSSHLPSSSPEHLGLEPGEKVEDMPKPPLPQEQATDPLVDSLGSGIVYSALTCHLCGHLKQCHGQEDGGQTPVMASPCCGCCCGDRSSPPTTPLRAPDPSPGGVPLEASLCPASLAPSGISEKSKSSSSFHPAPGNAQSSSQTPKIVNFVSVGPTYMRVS

attenuation of IL-4R activity relative to the control constructs (STAT6-luciferase reporter): > 10%
B1: anti-IL-4R:anti-CD63 conjugate (streptavidin-conjugated anti-IL-4R antibody combined 1:1 with biotinylated anti-CD63 antibody MEM-259) (protein, part only; not given: anti-CD63 antibody, constant regions, part only)
VH: EVQLVESGGGVVQPGRSLRLSCVASGFTFSDYGMHWVRQAPGKGLEWVAVIWYDGSIKYFRDSVKGRFTISRDNSKNTLYLQMNSLRVEDTAHYYCAKESSSWYFYHGLDVWGQGTMVTVSS
VL: EIVMTQSPLSLPVSPGEPASISCRSNQSLLHSNGNNYLAWYLQKPGQSPHLLIYLGSNRASGVPDRFSGSGSGTDFTLKISRVEAGDVGTYFCMQSLQAPPFTFGPGTKVEIKR
modifications: antibody is streptavidin-conjugated (site not stated)
